Values belong to the substance of their own block, whether it stands above or below them.
What was measured:
Test in all cases: cell-based or functional assay
[1] = target: GAL4/Arnt 128-774 (UniProt P04386)
[2] = target: GAL4/Arnt 128-603 (UniProt P04386)
[3] = target: GAL4/HIF 531-584 (human)
[4] = target: GAL4/HIF 776-826 (human)
[5] = target: GAL4/HIF 526-826 (human)
[6] = target: GAL4/HIF 71-826 (human)
[7] = target: GAL4/HIF 1-813 (human)
[8] = target: GFP-HIF-1α (in-frame fusion of green fluorescent protein with full-length HIF-1α) (Aequeora victoria; human) [GFP: P42212]
[9] = target: HIF-1α (wild-type human HIF-1α expressed from pCMV4/HIF-1α) (human) (UniProt Q16665)
HIF-1α (wild-type human HIF-1α expressed from pCMV4/HIF-1α) (human), sequence (Q16665 whole entry): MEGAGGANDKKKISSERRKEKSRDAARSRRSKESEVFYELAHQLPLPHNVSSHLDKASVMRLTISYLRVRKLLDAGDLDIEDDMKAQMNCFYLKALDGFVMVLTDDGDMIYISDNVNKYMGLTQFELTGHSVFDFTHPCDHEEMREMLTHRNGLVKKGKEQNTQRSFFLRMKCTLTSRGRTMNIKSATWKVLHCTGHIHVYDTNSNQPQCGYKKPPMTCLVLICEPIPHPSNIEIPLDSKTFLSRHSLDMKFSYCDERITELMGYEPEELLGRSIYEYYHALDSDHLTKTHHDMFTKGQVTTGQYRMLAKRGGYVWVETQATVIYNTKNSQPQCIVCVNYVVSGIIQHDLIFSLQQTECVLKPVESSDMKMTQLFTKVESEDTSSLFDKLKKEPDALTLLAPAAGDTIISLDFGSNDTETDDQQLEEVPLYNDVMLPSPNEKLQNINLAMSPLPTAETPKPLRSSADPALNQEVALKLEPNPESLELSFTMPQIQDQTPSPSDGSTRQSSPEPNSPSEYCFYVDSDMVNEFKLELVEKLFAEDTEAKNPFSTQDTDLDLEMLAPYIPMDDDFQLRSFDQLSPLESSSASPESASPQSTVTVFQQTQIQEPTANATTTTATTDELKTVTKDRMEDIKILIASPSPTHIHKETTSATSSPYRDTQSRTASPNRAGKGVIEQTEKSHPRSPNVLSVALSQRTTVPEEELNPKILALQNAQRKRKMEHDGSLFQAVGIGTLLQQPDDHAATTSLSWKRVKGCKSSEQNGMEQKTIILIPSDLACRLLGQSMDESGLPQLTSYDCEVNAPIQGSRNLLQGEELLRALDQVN

GAL4-responsive reporter gene activity, COS7, normoxia, against the GAL4 fusion protein alone [1]: 4 fold
GAL4-responsive reporter gene activity, COS7, normoxia [2]: 5 fold
Substance: HIF-1α (wild-type human HIF-1α expressed from pCMV4/HIF-1α) (from UniProt Q16665 1-826)

hypoxia-dependent activation of a GAL4-responsive reporter, COS7, Ref-1 coexpressed in the presence of CBP and SRC-1 [3]: 12 fold
hypoxia-dependent activation of a GAL4-responsive reporter, COS7, Ref-1 coexpressed in the presence of CBP and SRC-1 [4]: 53 fold
Substance: Ref-1 (nuclear redox regulator Ref-1 expressed from pCMV5/Ref-1) (from UniProt P27695 1-318) (enzyme)

GAL4-responsive reporter gene activity, COS7, hypoxic cells, in the presence of CBP [3]: 11 fold
GAL4-responsive reporter gene activity, COS7, in the presence of CBP [4]: 29 fold
GAL4-responsive reporter gene activity, COS7, transient expression of CBP [5]: 7 to 9 fold
luciferase activity, GAL4-responsive reporter, COS7, hypoxia with CBP against hypoxia without exogenous coactivators [6]: 30 fold
GAL4-responsive reporter gene activity, COS7, hypoxia, overexpression of CBP [7]: 14 fold
HRE-dependent reporter gene activity, COS7, hypoxia with CBP over the levels at normoxia [8]: 15 fold
HRE-dependent reporter gene activity, COS7, hypoxia, enhancement by coexpressed CBP [8]: 3 fold
pT81/HRE-luc reporter gene activity, COS7 coexpressing HIF-1α and Arnt, hypoxia, against hypoxia without exogenous coactivator [9]: 2 to 3 fold
Substance: CBP (CREB binding protein, full-length mouse CBP expressed from pRc/RSV-mCBP-HA) (from UniProt P45481 1-2441)

pT81/HRE-luc reporter gene activity, COS7, hypoxia over the levels at normoxia [9]: 12 fold
Substance: TIF2 (transcriptional coactivator TIF2) (from UniProt Q15596 1-1464)
